These results are taken from article PMC8196545 (Cell reports, 2021).

Changes are numbered by the printed parent chain.

Sequences and labels used below:
B1: c29260 (antibody, V domains shown)
VH: QVRLQESGPGLVRPSETLSLTCLVSGDSITSNYWSWIRQPPGKTLEWIGFMYNSGDANYNPSLQSRVSISADTANNQFALRLTSVTAADTAVYYCARHPSRGSNYDSVTGDTYYYYYGIDVWGPGKAVAVSS
VL: DIQMTQSTPSLSASLGDKITISCQASRDIDTSLNWYQQKPGKSPKLLVVAASTLETGVPSRFSASGSGTHFTLTINDLQRDDVATYFCQQYAALPLTFGGGTRVDLR
B2: c11475 (antibody, V domains shown)
VH: EARLVESGGGRVQPGGSLRLSCEASGFRFSSYTFNWVRQSPGKGLEWLAKISASPFGRSQVNYAHSVEGRFIISRDNDGNSLRLQMNDLRGGDSGVYYCARAPWQERNLDYNYAMDVWGQGTTVIVSS
VL: ELVLTQSPGTLSLSPGERATVSCRASQSLRRDSLAWYQQKPGHSPRLLIFAASNRVPGIPYRFSGTGSGTQFTLTIEKMEPEDFAVYYCQSYGSSPLYTFGQGTKLDIN
B3: c21079 (antibody, V domains shown)
VH: EVQLVQSGGGEARPGDSLRISCAVSGFQFNQYAMSWVRQRPGKGLEWVSSADWTGNSVHYAGSLGDRFSVSRALYGHSLELQMNSLRPEDTAVYYCARQDFYASESRAFSEIHGNFFDLWGQGTRVTVSP
VL: QSALTQPPSASGSPGQSVIISCTGASSDISGHEYVSWYQQHAAKVPKLIIYEVTKRPSGVPDRFIGSRSGNTASLTISGLQADDEADYYCASYRHNDRSYVFGTGTTVAVL
B4: c22681 (antibody, V domains shown)
VH: QIRLVESGGALVKPGGSLRLSCTASGFPFGHYYLSWVRQGPGRGLEWVAHISARSTTIVYADSVRGRFTISRDNDKRSLYLEMNDLRVDDTAMYYCARDSFKWTWEYFDAWGQGTRVSVSS
VL: QSVLTQPPSVSGAPGQTVAISCSGSTSNIGHNPVSWYRNVPGTAPRIIIFSDSQRPSGIPGRFSGSKSGTSASLVITDLQLEDEGDYYCAAWGGSLRGALFGGGTKVTVL
B5: c5266 (antibody, V domains shown)
VH: QVRLQESGPGLVKPSETLSLTCSVSGASVTAYSWSWVRLSAERGLEWIGRILPTIGSNRSNPSLHMRVGMSADTSKNLLSLRLTSVTAADTATYFCARDLVRDYDSWGGDYSTFHGIDVWGQGITVTVSL
VL: NSLLTQPPSVSESPGKTVNISCTRTSGGITWDFVQWYQQRPGRAPAIVIYANDRRPSGVPDRFAGSIDSSSNSAALIISGLITEDEADYYCQSFHPRGHVVFGGGTKLTVL
B6: c31993 (antibody, V domains shown)
VH: EVQLVQSGAEVKKPGESLKISCKCSGYTFSDHWIGWVRQRPEKGLEWMGIIFPDDSETRYSPSFEGQVTFSVDTASSTAYLLWNSLKPSDTATYYCARQESDEVRGARYDIWGQGTVVAVSS
VL: QSVLTQPPSVSGTPGQRVTISCSGSTSNVENNYVFWYQQLPGKAPELLIDGSNQRPSGVPDRFSGSKSGISASLAISGLRSEDEAYYYCAAWDESFVYLFGGGTKLTVL
B7: c26986 (antibody, V domains shown)
VH: QVHLVQSGAEVKKPGSSVKVSCKASGGSFNTNFITWVRQAPGQGLEWMGRIMPMFGTRNLAQRFQGRVTLSADTSSNSVYMELSSLTFGDTAVYFCAREAPAGGLDIWGQGTLVTVSS
VL: QIVLTQSPGTLSLSPGERATLSCRASQSLSSNYLAWYQQKPGQAPRLLIYGASSRATGIPDRFSGSGSGTDFTLTISRLEPEDFAVYYCQQYSTLFSFGPGTRVDIK
B8: c5373 (antibody, V domains shown)
VH: QVRLQESAPRVVKPSESLSLTCTVSGGSIFPFFYSWIRQAPGGGLQWIGRLYSNTGSSKSNPSLHLRVALSVDRSRNQVGLKMTSMTAADTGVYYCVRDIMREFDDFNGAGGVYGGVDIWGRGTAVTVSS
VL: QFVLTQPPSVSESPGKTISISCTRSSGTFARNSVHWYLQRPGSVPKTVIYDGNRRPSGIPGRFSASIDVSSGSASLTISGLTTEDEAEYYCQSFDGGNHVVFGGGTKVTVL
B9: c5337 (antibody, V domains shown)
VH: B8 VH with V11L, S17T, E103D
VL: B8 VL with T83P, F94Y
B10: c27236 (antibody, V domains shown)
VH: QVQLVQSGAEVKTPGSSVKVACKTSGGPFSSYAISWIRQAPGEGLEWMGGVTPLFGTARYTQKFQGRLTITTDESTSTTYMSLSGLKSEDTAVYYCASLAYIGSGPKWGQGALVTVSS
VL: DIQMTQSPSAMSASVGERVTITCRASQGISSDLAWFQQKPGKVPERLIYAASNLQSGVPSRFSGSGSGTQFTLTISGLQAEDSATYYCLQHDSYPWTFGQGTKVEIK
B11: c27003 (antibody, V domains shown)
VH: QFQLVQSGAEVRSPGSSVTVSCKASGSTFHTYVLSWVRQAPGQGLEWMGGIIPIFATPKYAQKFQGRVTFTADEGTSTAYMDLRSLRPEDTAVYYCARSATGGTALVDYGDYEGDTFYHNHMDVWGAGTTVTVSS
VL: QSVLTQPPSASATPGQRVTISCSGRTSNVGSYAVSWYQQLPGTAPKLVIYSDDRRPSGVPDRFSGSKSGTSASLAISGLQSEDEADFYCAAWDDSLKTPVFGGGTKLTVL
B12: c5331 (antibody, V domains shown)
VH: HVHLQESGPGLVKPSETLSVTCQVSGSPLSRYFWSWIRQPAGGGLEWIGRHYPSSGSNTASAALHTRITMSMDFRNNRLSLTLRSVTAADTAVYYCTRDVMRDFNDVNGSGGTFRGVEFWGRGTTVTVSS
VL: SFILTQPHAVSESPGKTVTISCTRSSGSIDTAYVHWYQQRPGRPPTTLIYDANQRPSGVPDRFSASVDSSSSSASLTISGLEAEDEAIYYCQSSDSGHRVVFGGGTELTVL
B13: c24118 (antibody, V domains shown)
VH: EVRLVESGGSLVQPGGSLRLSCSASGFSFSKSAMSWVRQAPGKELEWVAAISGSGNSHHISDAVRGRFSISRDNLGDSVFLQMYNLRVDDTAKYFCAKSEGGRSGWYYWATEYFQHWGQGAVVTVAS
VL: SSELTQPPSVSVSPGQTARISCSGHALPQRYATWYRQKPGQAPILIIFGNNERPSGIPARFFVSASGKTAILTITGVQAEDEGDYICQSSDGSHTSLVFGGGTKLTVL
B14: c24103 (antibody, V domains shown)
VH: B13 VH with V5A, E6Q, S10G, E46Q, H58Q, F68L, G76D, Q82H, Y84N, D89E
VL: B13 VL with I47V, F62S, I71M
B15: c24356 (antibody, V domains shown)
VH: QVQVVQSGAEVKQPGASVSVSCKVLGYTLSELSMHWVRQSPAKGLEWMAGFDPDANKEIYAQEFQGRVTLTHHFDTDTYFLELTSLRSDDTAVYYCATGERLAGNFLDWLHNFDYWGQGTLVTVSA
VL: EIVLTQSPATLSLSPGERATLSCRASQSIGNYLAWYQQRPGQAPRLLIHSTSNRATGIPVRFTGSGSGTDFTLTISSLEAEDFAVYYCQHRVNWPPGYTFGQGTKLDIK
B16: c10840 (antibody, V domains shown)
V domain 1: EVRLDQSGAEMRKPGTSVRLSCTVSGHTTSDFFIHWVKQAPQRGPQWMGLINVEDENVIYAEVFQGRISIVADTSKTTVFLDLSHLTFEDTALYFCTTHTLEKETGDYVAAFDSWGQGTFLSVSS
V domain 2: QSVLTQPPSVSAVPGQKVIISCSGRTSNIGTNFVSWYQQFPGAAPKLLIYDTFHRPSGISDRFSASKSDTSATLAITALQPGDEAEYYCGAWDSGLNPAVFVFGSGTRVFVL
B17: c31461 (antibody, V domains shown)
VH: QLQLQESGPGLVKPSETLSLTCSASGVSIGGGSSFLGWIRQPPGMGLEWIVTHYSAAKIYYNPSLQSRVITSLDTSKTQFSLKLTSMTATDTAIYYCARGNWQLQAFDSWGQGILVTVSS
VL: DIQMTQSPSTLSASVGDRVTITCRASQDIRSWLAWYQQKPGEAPKLLIYTASRLHSGVPSRFSGSGSGTEFTLTISSLQPDDFATYYCQQHNSYSGTFGQGTKVEIK
B18: c5272 (antibody, V domains shown)
VH: EVRLQESGPELVKPSGTLSLTCTIYGESIFPYFYSWIRQTAGGGLQWIGRLYSSTGSSKSNPSIHLRVALSVDRDRNQVGLRMTSMSLADTGVYYCVRDVMRGYDSFDGSSGIYGGVDIWGRGTTVTVSS
VL: QFLLTQPHSVSESPGKTITISCTRSSGTFASKSVLWFSQRPGSRPTNVIFETNRRAAGVPDRFSGSVDSSSSSATLTISGLRTEDEGDYYCQSYDGGNHVVFGGGTKVTVL
B19: c5229 (antibody, V domains shown)
VH: QMQLQESGPRLVKPSETLTVTCSVSGGSMSHFHWSWIRQSAGKGLEWIGSVYGNSGSVRSNPSLHTRVAFSLGRGQISLNLKWATAADTAVYYCARELARDFDYNFGHGGSSFGIEVWGRGTLVTVSS
VL: NFILTQPHSVSGSPGKTVIISCTRSSGNIGDNSVQWYQQRPGTPPRTVISEKNKRPSGVPDRFSASIDTSSNSASLTISGLTTEDEADYYCQSCDSGNRLIFGGGTTLTVL
B20: c10895 (antibody, V domains shown)
VH: QEQGIESVRAAVESGASLIISCPTSGFDFARYTMHWVRQAPGKGLEWVAVTSSQGEKKYYSEAVKGRFVITRNNFKRTLYLEMSSLKPEDAGVYYCARSQGYCGTYACYGYYYYMDVWVKGPTVIVSS
VL: QSVLTQPPSVSAAPGEKVAISCSGNTTNIEKNYVAWYQHVPETAPKLLIFENHKRPFGIPDRFSGSKSATSATLGISDLQTADEADYYCQTWDTKLHIWVFGGGTKLTVL

In the experiment the target is HIV-1 NL4-3 Env on infected cells (HIV-1 group M subtype B, NL4-3 (pNL4-3 …, strain)).
With B1, the binding result was “binds”.

With B2, the binding result is listed as “binds”.

With B3, the binding result is listed as “binds”.

On to B4, for which the binding result is recorded as “binds”.

As for B5, the binding result is recorded as “binds”.

In the case of B6, the binding result is given as “binds”.

Turning to B7, the binding result is “binds”.

With B8, the binding result was “binds”.

Take B9: the binding result is given as “binds”.

Turning to B10, the binding result is listed as “binds”.

As to B11, the binding result was “binds”.

On to B12, for which the binding result was “binds”.

Regarding B13, the binding result was “binds”.

As to B14, the binding result is given as “binds”.

With B15, the binding result was “binds”.

On to B16, for which the binding result is listed as “binds”.

B17: the binding result is “binds”.

Regarding B18, the binding result is reported as “binds”.

Regarding B19, the binding result is reported as “binds”.

On to B20, for which the binding result is reported as “binds”.
